# Laboratory results taken from patent US20180170992A1.
# pKd: −log10 of the molar value.
# Columns and labels:
# [1] = molecular target: IL13Rα2 expressed on the surface of human glioma cells (A172, N10, U251, U87, U118, U373, GBM12, GBM43) and in GBM tissue (human) (UniProt Q14627); experiment: flow cytometry on N10 glioma cells, isotype control [left table]
# [2] = molecular target: IL13Rα2 expressed on the surface of human glioma cells (A172, N10, U251, U87, U118, U373, GBM12, GBM43) and in GBM tissue (human) (UniProt Q14627); experiment: flow cytometry on N10 glioma cells pre-incubated with 10x excess rhIL13 [left table]
# [3] = molecular target: Pngase F-treated rhIL13Rα2hFc (human) (UniProt Q14627); experiment: plate-bound ELISA on Pngase F-treated rhIL13Rα2hFc
# [4] = molecular target: recombinant human IL13Rα2hFc chimera (R&D Systems) (human) (UniProt Q14627); experiment: SPR, Biacore 3000; mAb immobilised, rhIL13Rα2 in the flow; 1:1 model
Substance,% positive cells [1],% positive cells [2],percent decrease of binding against untreated protein [3],pKd [4],koff [4],kon [4]
control mouse IgG (antibody),1.9%,0.9%,,,,
"mAb to IL13Rα2 (clone 83807), R&D Systems (antibody)",,,80%,6.98,0.00231 s⁻¹,22300 M⁻¹ s⁻¹
"monoclonal antibody to IL13Rα2 (clone B-D13), Santa Cruz Biotechnology",,,,7.34,0.00499 s⁻¹,108000 M⁻¹ s⁻¹
